US20140294898A1 (published 2014)
Positions of bridges follow the written chain, without caps; N, C: chain ends. Non-standard residues stand in square brackets, D forms with d. NMeNle = CCCC[C@H](NC)C(=O)O; αMeP = C[C@@]1(C(=O)O)CCCN1; NMeA = CN[C@@H](C)C(=O)O; dNMeA = CN[C@H](C)C(=O)O; Aze = O=C(O)[C@@H]1CCN1; Sar = CNCC(=O)O

target: T1, hPDL1(19-239)-TVMV-His (human, UniProt Q9NZQ7 19-239); test: HTRF competition, PD-1-Ig binding to PD-L1-His
T1 construct: The text says amino acids 18-239, the construct name says 19-239; Expressed in HEK293T cells; Used at 10 nM final in the HTRF assay; also called PD-L1-His; PD-L1-TVMV-His
T1 sequence (Q9NZQ7 other isoform, or with tags, fused parts or gaps limits assumed): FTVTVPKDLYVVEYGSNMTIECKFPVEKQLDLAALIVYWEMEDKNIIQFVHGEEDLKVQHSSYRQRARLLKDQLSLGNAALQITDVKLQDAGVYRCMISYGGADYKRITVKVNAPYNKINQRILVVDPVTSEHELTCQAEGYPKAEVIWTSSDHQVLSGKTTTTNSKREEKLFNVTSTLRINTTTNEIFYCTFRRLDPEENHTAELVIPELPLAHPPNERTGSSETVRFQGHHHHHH
Protocol: All binding studies were performed in an HTRF assay buffer consisting of dPBS supplemented with 0.1% (w/v) bovine serum albumin and 0.05% (v/v) Tween-20. […] PD-L1 fusion proteins from either human, cynomologous macaques, or mouse were used. HTRF detection was achieved using europium crypate-labeled anti-Ig monoclonal antibody (1 nM final) and allophycocyanin (APC) labeled anti-His monoclonal antibody (20 nM final). Antibodies were diluted in HTRF detection buffer and 5 μl was dispensed on top of binding reaction. The reaction was allowed to equilibrate for 30 minutes and signal (665 nm/620 nm ratio) was obtained using an EnVision fluorometer. […]
HTRF Experiments were performed essentially as outlined supra. Variant macrocyclic peptides were created as outlined herein.

Row | IC50 [nM] | Binder
1 | 71 | {CH2CO}-F[NMeA]N[Aze]HL[Sar]WSW[NMeNle][NMeNle]RCG-NH2 (thioether N-14; SMILES CCCC[C@H]1C(=O)N(C)[C@@H](CCCC)C(=O)N[C@@H](CCCNC(=N)N)C(=O)N[C@H](C(=O)NCC(N)=O)CSCC(=O)N[C@@H](Cc2ccccc2)C(=O)N(C)[C@@H](C)C(=O)N[C@@H](CC(N)=O)C(=O)N2CC[C@H]2C(=O)N[C@@H](Cc2c[nH]cn2)C(=O)N[C@@H](CC(C)C)C(=O)N(C)CC(=O)N[C@@H](Cc2c[nH]c3ccccc23)C(=O)N[C@@H](CO)C(=O)N[C@@H](Cc2c[nH]c3ccccc23)C(=O)N1C) [Compound No. 50]
2 | 34 | {CH2CO}-F[NMeA]N[αMeP]HL[Sar]WSW[NMeNle][NMeNle]RCG-NH2 (thioether N-14; SMILES CCCC[C@H]1C(=O)N(C)[C@@H](CCCC)C(=O)N[C@@H](CCCNC(=N)N)C(=O)N[C@H](C(=O)NCC(N)=O)CSCC(=O)N[C@@H](Cc2ccccc2)C(=O)N(C)[C@@H](C)C(=O)N[C@@H](CC(N)=O)C(=O)N2CCC[C@@]2(C)C(=O)N[C@@H](Cc2c[nH]cn2)C(=O)N[C@@H](CC(C)C)C(=O)N(C)CC(=O)N[C@@H](Cc2c[nH]c3ccccc23)C(=O)N[C@@H](CO)C(=O)N[C@@H](Cc2c[nH]c3ccccc23)C(=O)N1C) [Compound No. 49]
3 | 5 | {CH2CO}-F[NMeA]NPHL[Sar]WAW[NMeNle][NMeNle]RCG-NH2 (thioether N-14; SMILES CCCC[C@H]1C(=O)N(C)[C@@H](CCCC)C(=O)N[C@@H](CCCNC(=N)N)C(=O)N[C@H](C(=O)NCC(N)=O)CSCC(=O)N[C@@H](Cc2ccccc2)C(=O)N(C)[C@@H](C)C(=O)N[C@@H](CC(N)=O)C(=O)N2CCC[C@H]2C(=O)N[C@@H](Cc2c[nH]cn2)C(=O)N[C@@H](CC(C)C)C(=O)N(C)CC(=O)N[C@@H](Cc2c[nH]c3ccccc23)C(=O)N[C@@H](C)C(=O)N[C@@H](Cc2c[nH]c3ccccc23)C(=O)N1C) [Compound No. 16]
4 | 7540 | {CH2CO}-F[NMeA]NPHL[Sar]WSA[NMeNle][NMeNle]RCG-NH2 (thioether N-14; SMILES CCCC[C@H]1C(=O)N(C)[C@@H](CCCC)C(=O)N[C@@H](CCCNC(=N)N)C(=O)N[C@H](C(=O)NCC(N)=O)CSCC(=O)N[C@@H](Cc2ccccc2)C(=O)N(C)[C@@H](C)C(=O)N[C@@H](CC(N)=O)C(=O)N2CCC[C@H]2C(=O)N[C@@H](Cc2c[nH]cn2)C(=O)N[C@@H](CC(C)C)C(=O)N(C)CC(=O)N[C@@H](Cc2c[nH]c3ccccc23)C(=O)N[C@@H](CO)C(=O)N[C@@H](C)C(=O)N1C) [Compound No. 17]
5 | 5 | {CH2CO}-Y[NMeA]NPHL[Sar]WSW[NMeNle][NMeNle]RCG-NH2 (thioether N-14; SMILES CCCC[C@H]1C(=O)N(C)[C@@H](CCCC)C(=O)N[C@@H](CCCNC(=N)N)C(=O)N[C@H](C(=O)NCC(N)=O)CSCC(=O)N[C@@H](Cc2ccc(O)cc2)C(=O)N(C)[C@@H](C)C(=O)N[C@@H](CC(N)=O)C(=O)N2CCC[C@H]2C(=O)N[C@@H](Cc2c[nH]cn2)C(=O)N[C@@H](CC(C)C)C(=O)N(C)CC(=O)N[C@@H](Cc2c[nH]c3ccccc23)C(=O)N[C@@H](CO)C(=O)N[C@@H](Cc2c[nH]c3ccccc23)C(=O)N1C) [Compound No. 30]
6 | 27 | {CH2CO}-W[NMeA]NPHL[Sar]WSW[NMeNle][NMeNle]RCG-NH2 (thioether N-14; SMILES CCCC[C@H]1C(=O)N(C)[C@@H](CCCC)C(=O)N[C@@H](CCCNC(=N)N)C(=O)N[C@H](C(=O)NCC(N)=O)CSCC(=O)N[C@@H](Cc2c[nH]c3ccccc23)C(=O)N(C)[C@@H](C)C(=O)N[C@@H](CC(N)=O)C(=O)N2CCC[C@H]2C(=O)N[C@@H](Cc2c[nH]cn2)C(=O)N[C@@H](CC(C)C)C(=O)N(C)CC(=O)N[C@@H](Cc2c[nH]c3ccccc23)C(=O)N[C@@H](CO)C(=O)N[C@@H](Cc2c[nH]c3ccccc23)C(=O)N1C) [Compound No. 25]
7 | 3 | {CH2CO}-F[NMeA]NPHL[Sar]WSW[NMeNle][NMeNle]ACG-NH2 (thioether N-14; SMILES CCCC[C@H]1C(=O)N(C)[C@@H](CCCC)C(=O)N[C@@H](C)C(=O)N[C@H](C(=O)NCC(N)=O)CSCC(=O)N[C@@H](Cc2ccccc2)C(=O)N(C)[C@@H](C)C(=O)N[C@@H](CC(N)=O)C(=O)N2CCC[C@H]2C(=O)N[C@@H](Cc2c[nH]cn2)C(=O)N[C@@H](CC(C)C)C(=O)N(C)CC(=O)N[C@@H](Cc2c[nH]c3ccccc23)C(=O)N[C@@H](CO)C(=O)N[C@@H](Cc2c[nH]c3ccccc23)C(=O)N1C) [Compound No. 22]

The remaining lines, values behind:

Row | Binder | IC50 [nM]
8 | {CH2CO}-A[NMeA]NPHL[Sar]WSW[NMeNle][NMeNle]RCG-NH2 (thioether N-14; SMILES CCCC[C@H]1C(=O)N(C)[C@@H](CCCC)C(=O)N[C@@H](CCCNC(=N)N)C(=O)N[C@H](C(=O)NCC(N)=O)CSCC(=O)N[C@@H](C)C(=O)N(C)[C@@H](C)C(=O)N[C@@H](CC(N)=O)C(=O)N2CCC[C@H]2C(=O)N[C@@H](Cc2c[nH]cn2)C(=O)N[C@@H](CC(C)C)C(=O)N(C)CC(=O)N[C@@H](Cc2c[nH]c3ccccc23)C(=O)N[C@@H](CO)C(=O)N[C@@H](Cc2c[nH]c3ccccc23)C(=O)N1C) [Compound No. 5] | 6500
9 | {CH2CO}-F[NMeA]APHL[Sar]WSW[NMeNle][NMeNle]RCG-NH2 (thioether N-14; SMILES CCCC[C@H]1C(=O)N(C)[C@@H](CCCC)C(=O)N[C@@H](CCCNC(=N)N)C(=O)N[C@H](C(=O)NCC(N)=O)CSCC(=O)N[C@@H](Cc2ccccc2)C(=O)N(C)[C@@H](C)C(=O)N[C@@H](C)C(=O)N2CCC[C@H]2C(=O)N[C@@H](Cc2c[nH]cn2)C(=O)N[C@@H](CC(C)C)C(=O)N(C)CC(=O)N[C@@H](Cc2c[nH]c3ccccc23)C(=O)N[C@@H](CO)C(=O)N[C@@H](Cc2c[nH]c3ccccc23)C(=O)N1C) [Compound No. 8] | 31
10 | {CH2CO}-F[Sar]NPHL[Sar]WSW[NMeNle][NMeNle]RCG-NH2 (thioether N-14; SMILES CCCC[C@H]1C(=O)N(C)[C@@H](CCCC)C(=O)N[C@@H](CCCNC(=N)N)C(=O)N[C@H](C(=O)NCC(N)=O)CSCC(=O)N[C@@H](Cc2ccccc2)C(=O)N(C)CC(=O)N[C@@H](CC(N)=O)C(=O)N2CCC[C@H]2C(=O)N[C@@H](Cc2c[nH]cn2)C(=O)N[C@@H](CC(C)C)C(=O)N(C)CC(=O)N[C@@H](Cc2c[nH]c3ccccc23)C(=O)N[C@@H](CO)C(=O)N[C@@H](Cc2c[nH]c3ccccc23)C(=O)N1C) [Compound No. 7] | 55
11 | {CH2CO}-F[NMeA]NPHL[dNMeA]WSW[NMeNle][NMeNle]RCG-NH2 (thioether N-14; SMILES CCCC[C@H]1C(=O)N(C)[C@@H](CCCC)C(=O)N[C@@H](CCCNC(=N)N)C(=O)N[C@H](C(=O)NCC(N)=O)CSCC(=O)N[C@@H](Cc2ccccc2)C(=O)N(C)[C@@H](C)C(=O)N[C@@H](CC(N)=O)C(=O)N2CCC[C@H]2C(=O)N[C@@H](Cc2c[nH]cn2)C(=O)N[C@@H](CC(C)C)C(=O)N(C)[C@H](C)C(=O)N[C@@H](Cc2c[nH]c3ccccc23)C(=O)N[C@@H](CO)C(=O)N[C@@H](Cc2c[nH]c3ccccc23)C(=O)N1C) [Compound No. 14] | 59
12 | {CH2CO}-F[NMeA]NPAL[Sar]WSW[NMeNle][NMeNle]RCG-NH2 (thioether N-14; SMILES CCCC[C@H]1C(=O)N(C)[C@@H](CCCC)C(=O)N[C@@H](CCCNC(=N)N)C(=O)N[C@H](C(=O)NCC(N)=O)CSCC(=O)N[C@@H](Cc2ccccc2)C(=O)N(C)[C@@H](C)C(=O)N[C@@H](CC(N)=O)C(=O)N2CCC[C@H]2C(=O)N[C@@H](C)C(=O)N[C@@H](CC(C)C)C(=O)N(C)CC(=O)N[C@@H](Cc2c[nH]c3ccccc23)C(=O)N[C@@H](CO)C(=O)N[C@@H](Cc2c[nH]c3ccccc23)C(=O)N1C) [Compound No. 10] | 16
13 | {CH2CO}-F[NMeA]NPHL[NMeA]WSW[NMeNle][NMeNle]RCG-NH2 (thioether N-14; SMILES CCCC[C@H]1C(=O)N(C)[C@@H](CCCC)C(=O)N[C@@H](CCCNC(=N)N)C(=O)N[C@H](C(=O)NCC(N)=O)CSCC(=O)N[C@@H](Cc2ccccc2)C(=O)N(C)[C@@H](C)C(=O)N[C@@H](CC(N)=O)C(=O)N2CCC[C@H]2C(=O)N[C@@H](Cc2c[nH]cn2)C(=O)N[C@@H](CC(C)C)C(=O)N(C)[C@@H](C)C(=O)N[C@@H](Cc2c[nH]c3ccccc23)C(=O)N[C@@H](CO)C(=O)N[C@@H](Cc2c[nH]c3ccccc23)C(=O)N1C) [Compound No. 13] | 16
14 | {CH2CO}-F[NMeA]NPHA[Sar]WSW[NMeNle][NMeNle]RCG-NH2 (thioether N-14; SMILES CCCC[C@H]1C(=O)N(C)[C@@H](CCCC)C(=O)N[C@@H](CCCNC(=N)N)C(=O)N[C@H](C(=O)NCC(N)=O)CSCC(=O)N[C@@H](Cc2ccccc2)C(=O)N(C)[C@@H](C)C(=O)N[C@@H](CC(N)=O)C(=O)N2CCC[C@H]2C(=O)N[C@@H](Cc2c[nH]cn2)C(=O)N[C@@H](C)C(=O)N(C)CC(=O)N[C@@H](Cc2c[nH]c3ccccc23)C(=O)N[C@@H](CO)C(=O)N[C@@H](Cc2c[nH]c3ccccc23)C(=O)N1C) [Compound No. 11] | 31
